# Patent US20090155853A1
# Target: human coxsackie virus B adenovirus receptor (CAR) expressed on CHO cells (CHO-hCAR) (human) (UniProt P78310)
# Assay: cell-based or functional assay
# Chain of UniProt P78310 (P78310 20-365): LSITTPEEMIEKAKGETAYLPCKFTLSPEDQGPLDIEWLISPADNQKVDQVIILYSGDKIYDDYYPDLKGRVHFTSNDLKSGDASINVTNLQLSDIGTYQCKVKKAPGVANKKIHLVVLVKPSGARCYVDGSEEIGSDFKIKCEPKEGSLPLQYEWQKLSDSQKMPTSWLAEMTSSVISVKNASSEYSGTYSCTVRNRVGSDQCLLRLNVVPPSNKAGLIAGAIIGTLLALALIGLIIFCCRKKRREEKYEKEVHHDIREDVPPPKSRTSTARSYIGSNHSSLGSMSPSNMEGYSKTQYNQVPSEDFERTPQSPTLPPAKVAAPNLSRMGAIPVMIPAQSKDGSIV
substance,measurement,value
HMG-PB/Fiber complex (HMG-PB plus Fiber protein) (from UniProt P12538 1-571; P11818 1-581),luciferase reporter plasmid delivery (luciferase gene expression) in CHO-hCAR against parental CHO cells,6 times
